Key:
[1] = biological target: heated (56° C., 15 minutes) Der f 2-IgE antibody in clinical-case serum of allergic dogs (canine); experiment: Der f 2-IgE ELISA, serum after heating, specimen containing pathogenic IgE antibody
[2] = biological target: T1, Peptide (-4) with 6×His tag and GS linker (canine); experiment: ELISA, His-tagged peptide captured by anti-His tag antibody, biotinylated 6C12
T1 construct: 4 amino acids deleted from the N terminal of Peptide-full
T1 peptide: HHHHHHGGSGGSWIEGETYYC

[3] = biological target: T2, Peptide (-1C) with 6×His tag and GS linker (canine); experiment: as above
T2 construct: 1 amino acid deleted from the C terminal
T2 peptide: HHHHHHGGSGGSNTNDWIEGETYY

[4] = biological target: T3, Peptide (-2C) with 6×His tag and GS linker (canine); experiment: as above
T3 construct: 2 amino acids deleted from the C terminal
T3 peptide: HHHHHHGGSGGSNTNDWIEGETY

[5] = biological target: T4, Peptide (-3C) with 6×His tag and GS linker (canine); experiment: as above
T4 construct: 3 amino acids deleted from the C terminal
T4 peptide: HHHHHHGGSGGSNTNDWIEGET

[6] = biological target: T5, Peptide (-4C) with 6×His tag and GS linker (canine); experiment: as above
T5 construct: 4 amino acids deleted from the C terminal
T5 peptide: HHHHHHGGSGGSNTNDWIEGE

[7] = biological target: T6, Peptide (-5C) with 6×His tag and GS linker (canine); experiment: as above
T6 construct: 5 amino acids deleted from the C terminal
T6 peptide: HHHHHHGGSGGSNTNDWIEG

[8] = biological target: non-heated Der f 2-IgE antibody in clinical-case serum of allergic dogs (canine); experiment: Der f 2-IgE ELISA, serum before heating, specimen containing pathogenic IgE antibody
[9] = biological target: heated (56° C.) Der f 2-IgE antibody in experimental canine serum (canine); experiment: Der f 2-IgE ELISA, serum after heating, specimen containing non-pathogenic IgE antibody
[10] = biological target: non-heated Der f 2-IgE antibody in experimental canine serum (beagles sensitized with Der f 2 and alum) (canine); experiment: Der f 2-IgE ELISA, serum before heating, specimen containing non-pathogenic IgE antibody
[11] = biological target: feline serum IgE antibody of allergy cases, after heating (feline); experiment: IgE ELISA of feline serum on immobilised Dermatophagoides Farinae allergen, 6C12 detection; Allergy case, Cat 1
[12] = biological target: feline serum IgE antibody of allergy cases, after heating (feline); experiment: IgE ELISA of feline serum on immobilised Dermatophagoides Farinae allergen, 6C12 detection; Allergy case, Cat 2
[13] = biological target: feline serum IgE antibody of allergy cases, after heating (feline); experiment: IgE ELISA of feline serum on immobilised Dermatophagoides Farinae allergen, 6C12 detection; Allergy case, Cat 3

Der f 2-IgE concentration detected by 6C12 [1]: 848 ng/mL
binding result [2]: no binding
binding result [3]: no binding
binding result [4]: no binding
binding result [5]: no binding
binding result [6]: no binding
binding result [7]: no binding
Der f 2-IgE concentration detected by 6C12 [8]: 0 ng/mL
Der f 2-IgE concentration detected by 6C12 [9]: 1050 ng/mL
IgE level detected by 6C12, After heating [11]: 89 ng/mL
IgE level detected by 6C12, After heating [12]: 34 ng/mL
IgE level detected by 6C12, After heating [13]: 91 ng/mL
B1: 6C12 (monoclonal antibody produced from hybridoma clone 6C12, mouse IgG1κ) (antibody, V domains shown)
VH: EVQLVESGGGLVQPKGSLKLSCAASGFNFNAYVMNWVRQAPGKGLEWVSRIRSKSNNYATYYADSVKDRFTISRDDSESMLYLQMNNLKTEDTAMYYCVRPDYYGGSPFAYWGQGTLVTVSA
VL: QIVLTQSPAIMSASPGEKVTISCSASSSVSYMYWYQQKPGSSPKPWIYRTSNLASGVPARFGGSGSGTSYSLTISSMEAEDAATYYCQQYHSYPPTFGVGTKLELK
notes: Mouse IgG1κ purified from ascites on Protein G; used biotin-labelled (ELISA, flow cytometry) or FITC-labelled (RBL-2H3); 129-174); also called 6C12 antibody; purified 6C12
Der f 2-IgE concentration detected by 6C12 [10]: 1050 ng/mL

Source: US20210355237A1 (RIKEN, published 2021)
